The values that follow come from article PMC11480844 (2024).

The labels stand for the following.
T1: peptide on HLA-B*07:02 (human)
T1 peptide: VPSVWRSSL

B1: R21 (TCR, V domains shown)
Valpha: AQKVTQAQTEISVVEKEDVTLDCVYETRDTTYYLFWYKQPPSGELVFLIRRNSFDEQNEISGRYSWNFQKSTSSFNFTITASQVVDSAVYFCALGTYGNNRLAFGKGNQVVVIP
Vbeta: NAGVTQTPKFRILKIGQSMTLQCAQDMNHNYMYWYRQDPGMGLKLIYYSVGAGITDKGEVPNGYNVSRSTTEDFPLRLELAAPSQTSVYFCASTKGGPSSYEQYFGPGTRLTVT
B2: R24 (TCR, V domains shown)
Valpha: GQQVMQIPQYQHVQEGEDFTTYCNSSTTLSNIQWYKQRPGGHPVFLIQLVKSGEVKKQKRLTFQFGEAKKNSSLHITATQTTDVGTYFCAVHMNRDDKIIFGKGTRLHILP
Vbeta: EAQVTQNPRYLITVTGKKLTVTCSQNMNHEYMSWYRQDPGLGLRQIYYSMNVEVTDKGDVPEGYKVSRKEKRNFPLILESPSPNQTSLYFCASSLTSFYEQYFGPGTRLTVT
B3: R26 (TCR, V domains shown)
Valpha: GQQVMQIPQYQHVQEGEDFTTYCNSSTTLSNIQWYKQRPGGHPVFLIQLVKSGEVKKQKRLTFQFGEAKKNSSLHITATQTTDVGTYFCAGQDYAGKSTFGDGTTLTVKP
Vbeta: DTGVSQNPRHKITKRGQNVTFRCDPISEHNRLYWYRQTLGQGPEFLTYFQNEAQLEKSRLLSDRFSAERPKGSFSTLEIQRTEQGDSAMYLCASSSGGRFYGYTFGSGTRLTVV
B4: R23 (TCR, V domains shown)
Valpha: KQEVTQIPAALSVPEGENLVLNCSFTDSAIYNLQWFRQDPGKGLTSLLLIQSSQREQTSGRLNASLDKSSGRSTLYIAASQPGDSATYLCAVRPQGGSEKLVFGKGTKLTVNP
Vbeta: EAQVTQNPRYLITVTGKKLTVTCSQNMNHEYMSWYRQDPGLGLRQIYYSMNVEVTDKGDVPEGYKVSRKEKRNFPLILESPSPNQTSLYFCASTVGGTQYFGPGTRLTVL
B5: R25 (TCR, V domains shown)
Valpha: GENVEQHPSTLSVQEGDSAVIKCTYSDSASNYFPWYKQELGKGPQLIIDIRSNVGEKKDQRIAVTLNKTAKHFSLHITETQPEDSAVYFCAAQKTSYDKVIFGPGTSLSVIP
Vbeta: EAQVTQNPRYLITVTGKKLTVTCSQNMNHEYMSWYRQDPGLGLRQIYYSMNVEVTDKGDVPEGYKVSRKEKRNFPLILESPSPNQTSLYFCASSTPGSLNEQFFGPGTRLTVL
B6: R28 (TCR, V domains shown)
Valpha: AQTVTQSQPEMSVQEAETVTLSCTYDTSESDYYLFWYKQPPSRQMILVIRQEAYKQQNATENRFSVNFQKAAKSFSLKISDSQLGDAAMYFCAYRSAGNQGAQKLVFGQGTRLTINP
Vbeta: ETGVTQSPTHLIKTRGQQVTLRCSSQSGHNTVSWYQQALGQGPQFIFQYYREEENGRGNFPPRFSGLQFPNYSSELNVNALELDDSALYLCASSLGRGTYEQYFGPGTRLTVT

For the assay, the target named is T1, peptide on HLA-B*07:02. Description: activation reporter or marker.
With B1, the binding result is listed as “recognises”. The value for B2 was “recognises”; that for B3 was “recognises”.

For B4, the binding result is given as “recognises”.

Turning to B5, the binding result was “recognises”. With B6, the binding result is recorded as “recognises”.
